Assay results taken from patent US20210269520A1 (Eli Lilly, published 2021).
Values belong to the binder of their own block, whether it stands above or below them.

Experiments:
[1] = target: T1, human CD19, membrane-bound, on cells (human, UniProt P15391 20-556); assay: cell-based or functional assay
T1 sequence: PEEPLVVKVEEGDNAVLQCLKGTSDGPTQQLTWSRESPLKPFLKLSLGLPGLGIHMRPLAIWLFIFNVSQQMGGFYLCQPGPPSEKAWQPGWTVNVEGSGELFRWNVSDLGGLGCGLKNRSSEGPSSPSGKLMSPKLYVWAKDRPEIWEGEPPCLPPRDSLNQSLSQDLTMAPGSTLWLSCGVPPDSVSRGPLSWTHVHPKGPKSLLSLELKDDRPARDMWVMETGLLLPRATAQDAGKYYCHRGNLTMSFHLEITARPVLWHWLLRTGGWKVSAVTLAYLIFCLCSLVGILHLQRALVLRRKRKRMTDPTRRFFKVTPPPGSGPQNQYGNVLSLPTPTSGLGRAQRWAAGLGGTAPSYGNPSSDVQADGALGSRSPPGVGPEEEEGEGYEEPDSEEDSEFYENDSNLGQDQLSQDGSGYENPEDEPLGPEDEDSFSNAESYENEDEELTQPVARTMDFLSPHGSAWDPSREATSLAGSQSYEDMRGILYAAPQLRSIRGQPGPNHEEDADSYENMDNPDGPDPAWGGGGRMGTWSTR

[2] = target: T2, human CD19 extracellular domain protein (human, UniProt P15391 20-291, biotinylated in the FIG. 2 ELISA and in the Fab screening (sites not given)); assay: sandwich ELISA: antibody captured on goat anti-human kappa, biotinylated human CD19 ECD titrated (20 ug/mL to 9 ng/mL), about 16 h wash at 37 C, neutravidin-alkaline phosphatase, absorbance at 560 nm
T2 construct: also called CD19 extracellular domain (ECD) protein; biotinylated human CD19 ECD antigen
T2 sequence: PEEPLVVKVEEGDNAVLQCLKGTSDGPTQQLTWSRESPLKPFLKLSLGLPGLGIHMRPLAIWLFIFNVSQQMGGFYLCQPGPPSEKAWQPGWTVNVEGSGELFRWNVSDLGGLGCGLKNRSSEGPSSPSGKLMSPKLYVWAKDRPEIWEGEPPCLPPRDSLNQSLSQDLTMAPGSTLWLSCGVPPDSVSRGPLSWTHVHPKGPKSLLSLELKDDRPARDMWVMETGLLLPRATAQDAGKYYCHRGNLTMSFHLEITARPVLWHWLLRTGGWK
Procedure: The ELISA assay is performed as follows. A 96 well microtiter plate is coated overnight at 4° C. using 50 μL/well of goat anti-human kappa polyclonal antibody diluted to 5 μg/mL in phosphate buffered saline (PBS). Following overnight incubation, the plate is aspirated and blocked using 200 μL of casein buffer for 1 hour at room temperature. The plate is washed three times using PBST (PBS with 0.1% Tween). The anti-human CD19 antibodies are diluted to 5 μg/mL in PBS casein and 50 μL added to each column of the anti-human kappa coated casein blocked plate for 1 hour at 37° C. The plate is washed three times using PBST. Biotinylated human CD19 extracellular domain protein is serially diluted from 20 μg/mL to 9 ng/mL and 50 μL added to the plates and incubated for 1 hour at 37° C. The plate is washed three times using PBST and then transferred to a beaker containing 1 liter of PBST and incubated with stirring overnight (approx. 16 hr) at 37° C. The wash buffer is aspirated and 50 μL of neutravidin alkaline phosphatase-conjugate diluted 1:1000 in casein buffer is added and incubated for 1 hour at 37° C. The plate is washed three times using PBS 0.1% Tween. Fifty μL of AMP-PMP substrate diluted 1:35 in deionized water is added and the absorbance at 560 nm read on a Spectramax plate reader.

[3] = target: T1, human CD19, membrane-bound, on cells; assay: cell-based or functional assay; remark: listed apart in the source
[4] = target: T1, human CD19, membrane-bound, on cells; assay: MSD-SET solution equilibrium titration at 37° C., fixed CHO cells expressing human CD19; geometric mean of 3 replicates
Procedure: (§1) Following incubation, cells are pelleted by centrifugation. One hundred microliters of the clarified supernatant from the plate is transferred to the prepared MSD plate and incubated on a plate shaker at room temperature for 60 minutes. Following incubation, the plate is washed 3× with TBST, then 100 μL of 1 μg/mL biotinylated goat anti-human IgG primary antibody (Southern Biotech, Catalog 2010-08) in 1% Blocker A is added to all wells. This is incubated on a plate shaker at room temperature for 60 minutes. The plate was washed 3× with TBST, then 100 μL of 1 μg/mL SULFO-TAG streptavidin (Meso Scale Discovery, P/N R32AD-1) in 1% Blocker A was added to all wells. This was incubated on a plate shaker at room temperature for 60 minutes. The plate is washed 3× with TBST, then 1× Read Buffer T (Meso Scale Discovery, P/NR92TC-1) is added immediately before reading the plate. Dissociation constant (KD) and a least common multiplier (LCM) to account for unknown antigen concentrations on cells are globally fit from the MSD-SET data to an equilibrium binding equation (see Darling and Brault, 2005, Kinetic Exclusion Assay Technology: Characterization of Molecular Interactions. Assay and Drug Development Technologies 2: 647-657) using non-linear regression in GraphPad Prism.

[5] = target: T3, cynomolgus monkey CD19, membrane-bound, stably expressed on CHO cells (cynomolgus monkey, UniProt A0A2K5W8L9 20-557); assay: MSD-SET solution equilibrium titration at 37° C., fixed CHO cells expressing cynomolgus monkey CD19; geometric mean of 3 replicates
T3 construct: whole, on cells; The cells were fixed with paraformaldehyde for MSD-SET; also called cynomolgus monkey CD19 expressing CHO cells
T3 sequence: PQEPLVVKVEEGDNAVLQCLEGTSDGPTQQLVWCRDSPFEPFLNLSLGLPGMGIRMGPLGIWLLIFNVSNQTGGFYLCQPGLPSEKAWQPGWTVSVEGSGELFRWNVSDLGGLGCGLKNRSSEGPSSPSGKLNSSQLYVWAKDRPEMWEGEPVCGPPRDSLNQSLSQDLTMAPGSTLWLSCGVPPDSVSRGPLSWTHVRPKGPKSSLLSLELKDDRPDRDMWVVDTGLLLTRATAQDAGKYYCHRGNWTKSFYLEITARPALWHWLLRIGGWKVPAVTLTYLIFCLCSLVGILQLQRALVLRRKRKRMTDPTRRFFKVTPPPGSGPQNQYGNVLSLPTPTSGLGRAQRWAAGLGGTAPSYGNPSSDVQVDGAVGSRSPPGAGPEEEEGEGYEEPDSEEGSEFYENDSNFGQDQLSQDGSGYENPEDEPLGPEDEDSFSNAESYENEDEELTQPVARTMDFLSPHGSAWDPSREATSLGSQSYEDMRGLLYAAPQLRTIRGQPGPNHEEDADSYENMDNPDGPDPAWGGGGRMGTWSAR
Procedure: as §1

[6] = target: T4, mouse CD19 Fc fusion protein (mouse, UniProt P25918 19-287, limits assumed); assay: SPR (Biacore T200) at 37° C., CD19-Fc captured on a protein A chip, Fab injected
T4 construct: Bought from R&D Systems; also called recombinant CD19-Fc; not shown: Fc part of a bought fusion protein
T4 sequence (looked up): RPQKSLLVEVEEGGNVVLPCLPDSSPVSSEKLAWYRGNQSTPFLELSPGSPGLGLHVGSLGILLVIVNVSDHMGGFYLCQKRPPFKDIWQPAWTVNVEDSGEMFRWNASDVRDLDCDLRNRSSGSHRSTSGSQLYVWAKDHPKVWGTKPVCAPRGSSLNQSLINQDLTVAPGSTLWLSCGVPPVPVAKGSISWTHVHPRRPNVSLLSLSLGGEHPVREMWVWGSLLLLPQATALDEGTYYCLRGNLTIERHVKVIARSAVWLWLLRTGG
Procedure: (§2) Biacore T200 instrument (GE Healthcare Life Sciences), reagents, and Biacore T200 Evaluation Software Ver 3.1 are used for the surface plasmon resonance analysis of human, mouse and cynomolgus monkey CD19 binding to the Fab fragment of CB3f. Recombinant CD19-Fc proteins are purchased from R&D Systems. A protein A sensor chip (GE protein A chip P/N 2912755) is used. Running buffer is 1×HBS-EP+ (Teknova P/N H8022), and running temperature is 37° C.
(§3) CD19 Fc fusion proteins are diluted to 3 μg/mL in running buffer, and approximately 60 RU each of human, cynomolgus monkey, and mouse proteins are captured in flow cells (Fc) 2, 3 and 4, respectively. CB3f Fab fragment is diluted to 1000 nM in running buffer and then 5-fold serially diluted in running buffer to 1.6 nM for a total of 5 dilutions. Fab or buffer blank is injected at 50 μL/min for 300 seconds followed by a 900 second dissociation phase. Regeneration is performed by injecting 10 mM glycine pH 1.5 for 30 seconds at 50 μL/min over all Fc. Reference-subtracted data is collected as Fc2-Fc1, Fc3-Fc1 and Fc4-Fc1, and then reference-subtracted data is blank subtracted. The on-rate (kₒₙ) and off-rate (koff) are fit using the “1:1 Binding” model. The affinity (KD) is calculated from the binding kinetics according to the relationship: KD=koff/kₒₙ.

[7] = target: T5, cynomolgus monkey CD19 Fc fusion protein (cynomolgus monkey, UniProt A0A2K5W8L9 20-292); assay: SPR (Biacore T200) at 37° C., CD19-Fc captured on a protein A chip, Fab injected, 1:1 binding model
T5 construct: Bought from R&D Systems; also called recombinant CD19-Fc; not shown: Fc part of a bought fusion protein
T5 sequence: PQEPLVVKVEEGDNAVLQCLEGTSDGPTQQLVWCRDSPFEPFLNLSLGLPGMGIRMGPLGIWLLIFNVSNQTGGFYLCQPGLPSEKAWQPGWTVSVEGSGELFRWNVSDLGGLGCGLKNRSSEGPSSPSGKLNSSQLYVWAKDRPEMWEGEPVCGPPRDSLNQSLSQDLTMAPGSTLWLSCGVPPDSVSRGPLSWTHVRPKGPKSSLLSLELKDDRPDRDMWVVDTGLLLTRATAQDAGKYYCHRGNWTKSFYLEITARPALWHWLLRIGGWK
Procedure: as §2, §3

[8] = target: T6, human CD19 Fc fusion protein (human, UniProt P15391 20-291); assay: as above
T6 construct: Bought from R&D Systems; also called recombinant CD19-Fc; not shown: Fc part of a bought fusion protein
T6 sequence: T2 sequence
Procedure: as §2, §3

[9] = target: T5, cynomolgus monkey CD19 Fc fusion protein; assay: SPR (Biacore T200) at 37° C., CD19-Fc captured on a protein A chip, Fab injected, KD = koff/kon
Procedure: as §2, §3

[10] = target: T6, human CD19 Fc fusion protein; assay: as above
Procedure: as §2, §3

IC50, inhibition of B cell activation in whole blood (reduction of CD69+ B cells), Average [1]: 8 pM | IC50, inhibition of B cell activation in whole blood (reduction of CD69+ B cells), Donor 1 [1]: 15 pM | IC50, inhibition of B cell activation in whole blood (reduction of CD69+ B cells), Donor 2 [1]: 0.6 pM | IC50, inhibition of B cell activation in whole blood (reduction of CD69+ B cells), Donor 3 [1]: 8 pM | EC50 (read off the curve) [2]: ~0.8 µg/mL | IC50, inhibition of primary B cell proliferation ([3H]-thymidine), Average of 12 donors [3]: 7 pM | IC50, inhibition of primary B cell proliferation ([3H]-thymidine), Donor 1 [3]: 6 pM | IC50, inhibition of primary B cell proliferation ([3H]-thymidine), Donor 2 [3]: 9 pM | IC50, inhibition of primary B cell proliferation ([3H]-thymidine), Donor 3 [3]: 3 pM | IC50, inhibition of primary B cell proliferation ([3H]-thymidine), Donor 4 [3]: 6 pM | IC50, inhibition of primary B cell proliferation ([3H]-thymidine), Donor 5 [3]: 4 pM | IC50, inhibition of primary B cell proliferation ([3H]-thymidine), Donor 6 [3]: 3 pM | IC50, inhibition of primary B cell proliferation ([3H]-thymidine), Donor 7 [3]: 3 pM | IC50, inhibition of primary B cell proliferation ([3H]-thymidine), Donor 8 [3]: 5 pM | IC50, inhibition of primary B cell proliferation ([3H]-thymidine), Donor 9 [3]: 5 pM | IC50, inhibition of primary B cell proliferation ([3H]-thymidine), Donor 10 [3]: 28 pM | IC50, inhibition of primary B cell proliferation ([3H]-thymidine), Donor 11 [3]: 4 pM | IC50, inhibition of primary B cell proliferation ([3H]-thymidine), Donor 12 [3]: 5 pM | Kd [4]: 3.35 pM | Kd [5]: 45.2 pM
B1: anti-human CD19 mAb CB3f (IgG4 isotype) (antibody, V domains shown)
VH: QVQLVQSGAEVKKPGSSVKVSCKASGHTISSYAYSWVRQAPGQGLEWMGDIIPAYGSPNYAQKFQGRVTITADESTSTAYMELSSLRSEDTAVYYCAREDFGKNYAMDVWGQGTLVTVSS
VL: EIVLTQSPGTLSLSPGERATLSCRASQHVSSHYLAWYQQKPGQAPRLLIYGASSRATGIPDRFSGSGSGTDFTLTISRLEPEDFAVYYCQHYGQSQFTFGQGTKVEIKR
notes: also called anti-human CD19 mAb1

binding result [6]: no binding (tested: 1 µM) | koff [7]: 0.0978 s⁻¹ | kon [7]: 1.04e+06 M⁻¹ s⁻¹ | koff [8]: 0.000235 s⁻¹ | kon [8]: 3.2e+06 M⁻¹ s⁻¹ | Kd [9]: 94500 pM | Kd [10]: 76.8 pM
B2: Fab fragment of CB3f (Fab, V domains shown)
VH: B1 VH
VL: EIVLTQSPGTLSLSPGERATLSCRASQHVSSHYLAWYQQKPGQAPRLLIYGASSRATGIPDRFSGSGSGTDFTLTISRLEPEDFAVYYCQHYGQSQFTFGQGTKVEIK
notes: also called CB3f Fab fragment; CB3f Fab
